# B1: Pistol ribozyme (parent)
# chain: GGGUCGUUGUUCCAUAAUCGCGUGGAUAUGGCACGCAAGUUUCUACCGGGCACCGUAAAUGUCCGACUGGAGCCGUUCGGGCGGCUAUAAACAGACCUCAGGCCCGAAGCGUGGCGGCACCUGCCGCCGGUGGUAAAAAAGAUCGGAAGAGCACACGUCU
# Variants of: B1
# Assay: aptazyme ON/OFF ratio, guanine; higher = stronger switching; co-transcriptional cleavage with and without guanine
row,Variant,aptazyme ON/OFF ratio
1,U8G G9A U10A U11G C12A C13G,1.09
2,U8G G9A U10A U11G C12A C13U,1.27
3,U8G G9A U10A U11G C12A C13A,1.17
4,U8G G9A U10A U11A C13A,1.12
5,U8G G9A U10A U11A C13G,1.01
6,U8G G9A U10A U11A C13U,1.17
7,U8G G9A C12U C13U,1.25
8,U8G G9A C12U C13A,1.25
9,U8G G9A C12U C13G,1.28
10,U8G G9A U10A U11A C12U C13A,1.36
11,U8G G9A U10A U11A C12U C13U,1.21
12,U8G G9A U10A U11A C12U C13G,1.09
13,U8C U10G U11G,1.26
14,U8C U11C C12G C13U,1.36
15,U8C U11C C12G C13A,1.37
16,U8C U11C C12G C13G,1.36
17,U8G G9A U10C C12A C13A,1.2
18,U8C U11A C12U C13G,1.18
19,U8C U11A C12U C13A,1.21
20,U8C U11A C12U C13U,1.13
21,U8C U11C C12U C13U,1.33
22,U8C U11C C12U C13A,1.19
23,U8C U11C C12U C13G,1.5
24,U8C U10G U11G C13A,1.25

row,Variant,aptazyme ON/OFF ratio
1,U8C U10G U11G C13U,1.22
2,U8C U10G U11G C13G,1.2
3,U8G,3.01
4,U8G G9A U10A U11A C12G C13U,1.27
5,U8G G9A U10A U11A C12G C13A,1.22
6,U8G G9A U10A U11A C12G C13G,1.39
7,U8G G9A C12U,1.39
8,U8G G9A C12A,1.61
9,U8G G9A C12G,1.16
10,U8C U11A C12A,1.34
11,U8C U11A C12U,1.19
12,U8C U11A C12G,1.25
13,U8G G9A U10A U11G C12G C13A,1.34
14,U8G G9A U10A U11G C12G C13G,1.05
15,U8G G9A U10A U11G C12G C13U,1.28
16,U8C U11G C13U,1.17
17,U8C U11G C13G,1.06
18,U8C U11G C13A,1.05
19,U8G G9A U10A U11G,1.55
20,U8G G9A U10A U11A,1.6
21,U8G G9A U10A U11C,1.06
22,U8C U11C C12A C13A,1.24
23,U8C U11C C12A C13U,1.73
24,U8C U11C C12A C13G,1.4

row,Variant,aptazyme ON/OFF ratio
1,U8G G9A U10C C12A,1.25
2,U8C U11C C12G,1.34
3,U8C U11C C12U,1.55
4,U8C U11C C12A,1.14
5,U8G G9A U10A U11C C12A C13U,1.32
6,U8G G9A U10A U11C C12A C13G,1.12
7,U8G G9A U10A U11C C12A C13A,1.21
8,U8G G9A C12A C13U,1.39
9,U8G G9A C12A C13A,1.25
10,U8G G9A C12A C13G,1.27
11,U8G G9A U10A C12A C13U,1.26
12,U8G G9A U10A C12A C13A,1.33
13,U8G G9A U10A C12A C13G,1.18
14,U8G G9A C13U,1.28
15,U8G G9A C13A,1.24
16,U8G G9A C13G,1.07
17,U8C U11G C12U,1.26
18,U8C U11G C12A,1.15
19,U8C U11G C12G,1.23
20,U8C U10G U11G C12A C13U,1.22
21,U8C U10G U11G C12A C13A,1.11
22,U8C U10G U11G C12A C13G,1.09
23,U8G G9A U10A U11G C12A,1.08
24,U8G G9A U10A U11G C12U,1.3

row,Variant,aptazyme ON/OFF ratio
1,U8G G9A U10A U11G C12G,1.48
2,U8G C13A,1.3
3,U8G C13G,1.2
4,U8G C13U,1.27
5,U8C U11C C13A,1.21
6,U8C U11C C13G,1.11
7,U8C U11C C13U,1.19
8,U8C U11A C13A,1.13
9,U8C U11A C13G,1.07
10,U8C U11A C13U,1.11
11,U8G G9A C12G C13U,1.33
12,U8G G9A C12G C13A,1.37
13,U8G G9A C12G C13G,1.29
14,U8G G9A,1.64
15,U8G G9A U10A U11C C12U C13A,1.18
16,U8G G9A U10A U11C C12U C13U,1.07
17,U8G G9A U10A U11C C12U C13G,1.23
18,U8G G9A U10A C13G,1.08
19,U8G G9A U10A C13A,1.25
20,U8G G9A U10A C13U,1.22
21,U8G G9A U10A U11A C12A C13G,1.18
22,U8G G9A U10A U11A C12A C13A,1.21
23,U8G G9A U10A U11A C12A C13U,1.26
24,U8G G9A U10A U11C C12G C13U,1.36

row,Variant,aptazyme ON/OFF ratio
1,U8G G9A U10A U11C C12G C13A,1.24
2,U8G G9A U10A U11C C12G C13G,1.21
3,U8G G9A U10A U11G C12U C13A,1.31
4,U8G G9A U10A U11G C12U C13U,1.56
5,U8G G9A U10A U11G C12U C13G,1.25
6,U8C U10G U11G C12U,1.32
7,U8C U10G U11G C12A,1.18
8,U8C U10G U11G C12G,1.25
9,U8G G9A U10A,1.24
10,U8G G9A U10C,2.29
11,U8G C12G,1.52
12,U8G C12U,1.64
13,U8G C12A,1.69
14,U8C U10G U11C C12U C13U,1.28
15,U8C U11G C12U C13G,1.07
16,U8C U11G C12U C13U,1.17
17,U8C U11G C12U C13A,1.08
18,U8C U11G C12G C13A,1.13
19,U8C U11G C12G C13G,1.19
20,U8C U11G C12G C13U,1.11
21,U8C U10G U11C C13U,1.04
22,U8C U10G U11C C13G,1.07
23,U8C U10G U11C C13A,1.05
24,U8G G9A U10A U11A C12U,1.35

row,Variant,aptazyme ON/OFF ratio
1,U8G G9A U10A U11A C12A,1.21
2,U8G G9A U10A U11A C12G,1.28
3,U8C U10G U11G C12U C13U,1.23
4,U8C U10G U11G C12U C13G,1.12
5,U8C U10G U11G C12U C13A,1.11
6,U8G G9A U10A U11G C13U,1.06
7,U8G G9A U10A U11G C13G,1.07
8,U8G G9A U10A U11G C13A,1.23
9,U8C U11A C12G C13A,1.1
10,U8C U11A C12G C13U,1.14
11,U8C U11A C12G C13G,1.16
12,U8C U11G C12A C13U,1.16
13,U8C U11G C12A C13A,1.16
14,U8C U11G C12A C13G,1.16
15,U8G G9A U10A C12A,1.32
16,U8G G9A U10A C12G,1.18
17,U8G G9A U10A C12U,1.27
18,U8G G9A U10A U11C C12G,1.23
19,U8G G9A U10A U11C C12U,1.04
20,U8G G9A U10A U11C C12A,1.2
21,U8G G9A U10A C12G C13G,1.3
22,U8G G9A U10A C12G C13A,1.22
23,U8G G9A U10A C12G C13U,1.35
24,U8C U11G,1.26

row,Variant,aptazyme ON/OFF ratio
1,U8C U11C,1.18
2,U8C U11A,1.15
3,U8G C12G C13A,1.2
4,U8G C12G C13U,1.55
5,U8G C12G C13G,1.15
6,U8C U10G U11G C12G C13U,1.26
7,U8C U10G U11G C12G C13A,1.16
8,U8C U10G U11G C12G C13G,1.13
9,U8G C12A C13U,1.12
10,U8G C12A C13G,1.13
11,U8G C12A C13A,1.25
12,U8G G9A U10A C12U C13A,1.15
13,U8G G9A U10A C12U C13G,1.31
14,U8G G9A U10A C12U C13U,1.29
15,U8C U11A C12A C13A,1.32
16,U8C U11A C12A C13G,1.11
17,U8C U11A C12A C13U,1.28
18,U8G C12U C13U,1.18
19,U8G C12U C13G,1.4
20,U8G C12U C13A,1.23
21,U8G G9A U10A U11C C13G,1.04
22,U8G G9A U10A U11C C13U,1.01
23,U8G G9A U10A U11C C13A,1.08
